Experimental data reported in patent publication US6958236B2, “Control of gene expression in plants” (priority 2000, dated 2005).

Assays:
pCGS154 reporter = experiment: Transient transfection of S2 Drosophila cells with luciferase reporter and EcR receptor plasmids; format: cell-based; conditions: for No Chemistry (luciferase activity as ratio to pCGS154 reporter without chemistry): reporter CGS154, no chemical ligand
Experimental: An in vivo cell based assay is designed to measure transcriptional activation by the receptors of a reporter plasmid. S2 Drosophila cells (ATCC CRL-1963) are transiently transfected with luciferase reporter and receptor expression plasmids using the calcium phosphate precipitation procedure (Di Nocera and David (1983) PNAS 80, 7095-7098). S2 cells are plated in 96 well format at a density of 2×10^5 in 166.6 μl of Schneider's Drosophila media supplemented with antibiotics and 10% heat inactivated fetal bovine serum (GIBO-BRL). The following day, 33.4 μl of a calcium phosphate precipitate containing 3-6 ng of pCGS154 reporter plasmid, 3-6 ng of EcR receptor plasmid along with salmon sperm DNA to a total of 400 ng DNA per well is added. Chemical ligands are added 16-24 hours after DNA addition to the cells. Cells are then harvested and extracted 24 hours after chemistry addition following the procedures for the luciferase assay by centrifuging and resuspending the cell pellets in 100 μl of cell culture lysis reagent (Promega). Luciferase activity is quantitated using chemiluminescence (Promega) using an analytical luminescence model 2001 luminometer.
S2 cells contain Drosophila EcR and USP. The endogenous USP can be used as the heterodimerization partner for EcR or exogenous USP expression plasmid can be added to the assay.
To compare the activities of Manduca and Drosophila EcR, S2 cells are transiently transfected using the above procedure with the reporter plasmid pCGS 154 and either full-length Drosophila EcR, DDV, full-length Manduca EcR, or MMV. Tebufenozide at 0.2 µM and 2 μM is used as the chemical ligand. Luciferase assays are performed as described above. All of the results are normalized as a ratio of activity to the light unit value for the pCGS154 reporter without chemistry.
The activities of the EcR-VP16 chimeras are compared by transiently transfecting S2 cells as described in Example 3. Tebufenozide is added to the cells at 0.2 μM concentration. Results are expressed as fold activation, a ratio of the activity of the constructs with chemistry added as compared to activity of the constructs without chemistry. All results are normalized to the luciferase activity of the pCGS154 reporter without receptor addition.
(§1) The activities of the EcR-VP16 chimeras are compared by transiently transfecting S2 cells as in Example 3. Tebufenozide is added to the cells at 0.2 μM concentration. Results are expressed as fold activation of constructs with chemistry as compared to without chemistry. All results are normalized to the luciferase activity of the pCGS154 reporter without receptor.
as §1, with “chemistry addition.” for “chemistry.”

[1] = system: pCGS206 (luciferase reporter with response elements for the GAL4 DNA binding domain); experiment: Maize BMS cells bombarded with GAL4 luciferase reporter and receptor vector, GUS-normalized luciferase; format: cell-based; conditions: Example 28; BMS cells, reporter pCGS206, no ligand, GUS-normalized
Experimental: (§2) Maize BMS (Black Mexican Sweet) cultured cells are transfected with pCGS206 and pCGS208 by high velocity microprojectile bombardment. In addition, an expression plasmid containing the maize ubiquitin promoter driving the expression of β-glucuronidase (GUS) is added to the transfection to serve as an internal control to normalize against variations among the samples.
(§3) Transfections are treated and cell lysates are made essentially as described in U.S. Pat. No. 5,880,333. […] Both luciferase and GUS assays are performed with 20 μl of cell lysate for each assay using the Promega Luciferase Kit (Promega cat #E1500) and GUS-Light Kit (Tropix) respectively. Relative light units are determined using a Turner Designs TD 20/20 luminometer.
In addition to tebufenozide, methoxytebufenozide (“MethoxyTeb”) is also capable of inducing gene expression in maize BMS cells. Both pCGS206 and pCGS208 are transfected as described above and methoxytebufenozide is added in place of tebufenozide at 25 μM and 10 μM.
Maize BMS cells are transfected and assayed as in Example 12.
as §2, with “Transformation of maize suspension cells, chemical treatment, and reporter activity assays are performed as described in Example 12. Maize” for “Maize”, “pCGS206 (pBS-bz1TATA/intronLUC), pCGS203 (G(M)MV), pCGS672 (G(M)MC),” for “pCGS206”, “pCGS678 (G(M)MD)” for “pCGS208”
as §3, with “Maize BMS cells are bombarded with reporter vector pCGS206 and chimeric receptors and treated with tebufenozide essentially as described in Example 12. Transfections” for “Transfections”, “units (RLU)” for “units”

[2] = Example 6, 0.2 μM tebufenozide vs without chemistry, normalized to pCGS154 reporter without receptor

B1: MaFL: full-length Manduca EcR expression cassette in pPacU (protein, UniProt P49883 1-556, looked up)
chain: MRRRWSNNGCFPLRMFEESSSEVTSSSAFGMPAAMVMSPESLASPEYGGLELWSYDETMTNYPAQSLLGACNAPQQQQQQQQQQPSAQPLPSMPLPMPPTTPKSENESMSSGREELSPASSINGCSTDGEPRRQKKGPAPRQQEELCLVCGDRASGYHYNALTCEGCKGFFRRSVTKNAVYICKFGHACEMDMYMRRKCQECRLKKCLAVGMRPECVVPESTCKNKRREKEAQREKDKLPVSTTTVDDHMPAIMQCDPPPPEAARIHEVVPRFLTEKLMEQNRLKNVTPLSANQKSLIARLVWYQEGYEQPSEEDLKRVTQTWQLEEEEEEETDMPFRQITEMTILTVQLIVEFAKGLPGFSKISQSDQITLLKASSSEVMMLRVARRYDAATDSVLFANNQAYTRDNYRKAGMSYVIEDLLHFCRCMYSMSMDNVHYALLTAIVIFSDRPGLEQPLLVEEIQRYYLKTLRVYILNQHSASPRCAVLFGKILGVLTELRTLGTQNSNMCISLKLKNRKLPPFLEEIWDVAEVSTTQPTPGVAAQVTPIVVDNPAAL
modifications: full-length
notes: full-length Manduca EcR expression cassette in pPacU
In the case of B1, the “No Chemistry (luciferase activity as ratio to pCGS154 reporter without chemistry)” value (pCGS154 reporter) is reported as 1.

B2: GV(M)M: EcR chimera: GAL4 DBD, internal VP16, Manduca D and E domains; SEQ ID NO:147-148 (protein)
chain: MQQLYVDFFSPAFIRYLFAWYCFFCRCSPCCLVLLLQGSATMKLLSSIEQACDICRLKKLKCSKEKPKCAKCLKNNWECRYSPKTKRSPLTRAHLTEVESRLERLEQLFLLIFPREDLDMILKMDSLQDIKALLTGLFVQDNVNKDAVTDRLASVETDMPLTLRQHRISATSSSEESSNKGQRQLTVSTRMRPECVVPESTCKLAPPTDVSLGDELHLDGEDVAMAHADALDDFDLDMLGDGDSPGPGFTPHDSAPYGALDMADFEFEQMFTDALGIDEYGGNTCKNKRREKEAQREKDKLPVSTTTVDDHMPAIMQCDPPPPEAARIHEVVPRFLTEKLMEQNRLKNVTPLSANQKSLIARLVWYQEGYEQPSEEDLKRVTQTWQLEEEEEEETDMPFRQITEMTILTVQLIVEFAKGLPGFSKISQSDQITLLKASSSEVMMLRVARRYDAATDSVLFANNQAYTRDNYRKAGMSYVIEDLLHFCRCMYSMSMDNVHYALLTAIVIFSDRPGLEQPLLVEEIQRYYLKTLRVYILNQHSASPRCAVLFGKILGVLTELRTLGTQNSNMCISLKLKNRKLPPFLEEIWDVAEVSTTKL
B2 was tested, and the “Experiment #1 RLU” value [1] was 1.71 RLU and the “Experiment #2 RLU” value [1] was 1.77 RLU.

B3: VG(M)M: EcR chimera: N-terminal VP16, GAL4 DBD, Manduca D and E domains; SEQ ID NO:142-143 (protein)
chain: MQQLYVDFFSPAFIRYLFAWYCFFCRCSPCCLVLLLQGSATMHVKLAPPTDVSLGDELHLDGEDVAMAHADALDDFDLDMLGDGDSPGPGFTPHDSAPYGALDMADFEFEQMFTDALGIDEYGGHVTSKLLSSIEQACDICRLKKLKCSKEKPKCAKCLKNNWECRYSPKTKRSPLTRAHLTEVESRLERLEQLFLLIFPREDLDMILKMDSLQDIKALLTGLFVQDNVNKDAVTDRLASVETDMPLTLRQHRISATSSSEESSNKGQRQLTVSTRMRPECVVPESTCKNKRREKEAQREKDKLPVSTTTVDDHMPAIMQCDPPPPEAARIHEVVPRFLTEKLMEQNRLKNVTPLSANQKSLIARLVWYQEGYEQPSEEDLKRVTQTWQLEEEEEEETDMPFRQITEMTILTVQLIVEFAKGLPGFSKISQSDQITLLKASSSEVMMLRVARRYDAATDSVLFANNQAYTRDNYRKAGMSYVIEDLLHFCRCMYSMSMDNVHYALLTAIVIFSDRPGLEQPLLVEEIQRYYLKTLRVYILNQHSASPRCAVLFGKILGVLTELRTLGTQNSNMCISLKLKNRKLPPFLEEIWDVAEVSTTKL
B3 was tested, and the “Experiment #1 RLU” value [1] was 2.21 RLU and the “Experiment #2 RLU” value [1] was 2.52 RLU.

B4: DrosFL: full-length Drosophila EcR expression cassette in pPacU (protein, UniProt P34021 1-878, looked up)
chain: MKRRWSNNGGFMRLPEESSSEVTSSSNGLVLPSGVNMSPSSLDSHDYCDQDLWLCGNESGSFGGSNGHGLSQQQQSVITLAMHGCSSTLPAQTTIIPINGNANGNGGSTNGQYVPGATNLGALANGMLNGGFNGMQQQIQNGHGLINSTTPSTPTTPLHLQQNLGGAGGGGIGGMGILHHANGTPNGLIGVVGGGGGVGLGVGGGGVGGLGMQHTPRSDSVNSISSGRDDLSPSSSLNGYSANESCDAKKSKKGPAPRVQEELCLVCGDRASGYHYNALTCEGCKGFFRRSVTKSAVYCCKFGRACEMDMYMRRKCQECRLKKCLAVGMRPECVVPENQCAMKRREKKAQKEKDKMTTSPSSQHGGNGSLASGGGQDFVKKEILDLMTCEPPQHATIPLLPDEILAKCQARNIPSLTYNQLAVIYKLIWYQDGYEQPSEEDLRRIMSQPDENESQTDVSFRHITEITILTVQLIVEFAKGLPAFTKIPQEDQITLLKACSSEVMMLRMARRYDHSSDSIFFANNRSYTRDSYKMAGMADNIEDLLHFCRQMFSMKVDNVEYALLTAIVIFSDRPGLEKAQLVEAIQSYYIDTLRIYILNRHCGDSMSLVFYAKLLSILTELRTLGNQNAEMCFSLKLKNRKLPKFLEEIWDVHAIPPSVQSHLQITQEENERLERAERMRASVGGAITAGIDCDSASTSAAAAAAQHQPQPQPQPQPSSLTQNDSQHQTQPQLQPQLPPQLQGQLQPQLQPQLQTQLQPQIQPQPQLLPVSAPVPASVTAPGSLSAVSTSSEYMGGSAAIGPITPATTSSITAAVTASSTTSAVPMGNGVGVGVGVGGNVSMYANAQTAMALMGVALHSHQEQLIGGVAVKSEHSTTA
modifications: full-length
notes: full-length Drosophila EcR expression cassette in pPacU
In the case of B4, the “No Chemistry (luciferase activity as ratio to pCGS154 reporter without chemistry)” value (pCGS154 reporter) is reported as 1.

B5: DDV: EcR chimera: Drosophila melanogaster C+D and E domains, VP16; SEQ ID NO:95-96 (protein)
chain: MGRDDLSPSSSLNGYSANESCDAKKSKKGPAPRVQEELCLVCGDRASGYHYNALTCEGCKGFFRRSVTKSAVYCCKFGRACEMDMYMRRKCQECRLKKCLAVGMRPECVVPENQCAMKRREKKAQKEKDKMTTSPSSQHGGNGSLASGGGQDFVKKEILDLMTCEPPQHATIPLLPDEILAKCQARNIPSLTYNQLAVIYKLIWYQDGYEQPSEEDLRRIMSQPDENESQTDVSFRHITEITILTVQLIVEFAKGLPAFTKIPQEDQITLLKACSSEVMMLRMARRYDHSSDSIFFANNRSYTRDSYKMAGMADNIEDLLHFCRQMFSMKVDNVEYALLTAIVIFSDRPGLEKAQLVEAIQSYYIDTLRIYILNRHCGDSMSLVFYAKLLSILTELRTLGNQNAEMCFSLKLKNRKLPKFLEEIWDVHAIPPKLAPPTDVSLGDELHLDGEDVAMAHADALDDFDLDMLGDGDSPGPGFTPHDSAPYGALDMADFEFEQMFTDALGIDEYGG
For B5, the “Assay # 1 Fold Activation With Chemistry” value (pCGS154 reporter; [2]) was 1.01 fold, the “Assay # 2 Fold Activation With Chemistry” value (pCGS154 reporter; [2]) was 0.68 fold and the “No Chemistry (luciferase activity as ratio to pCGS154 reporter without chemistry)” value (pCGS154 reporter) was 1.
